The experiment has as its target holo-SDHA-SDHAF2 complex (preformed from purified proteins) (human) (UniProt P31040). The experiment in a line: pull-down; preformed holo-SDHA-SDHAF2 (2 µM, His6 on SDHA) incubated with SDHAF4 or its variants, with or without 5 mM fumarate, 30 min 25 °C, then held on Ni-NTA agarose; SDS-PAGE with Coomassie, western blot for the truncated variants.

Sequence of holo-SDHA-SDHAF2 complex (preformed from purified proteins) (human) (P31040 43-664, chain 1 of 2): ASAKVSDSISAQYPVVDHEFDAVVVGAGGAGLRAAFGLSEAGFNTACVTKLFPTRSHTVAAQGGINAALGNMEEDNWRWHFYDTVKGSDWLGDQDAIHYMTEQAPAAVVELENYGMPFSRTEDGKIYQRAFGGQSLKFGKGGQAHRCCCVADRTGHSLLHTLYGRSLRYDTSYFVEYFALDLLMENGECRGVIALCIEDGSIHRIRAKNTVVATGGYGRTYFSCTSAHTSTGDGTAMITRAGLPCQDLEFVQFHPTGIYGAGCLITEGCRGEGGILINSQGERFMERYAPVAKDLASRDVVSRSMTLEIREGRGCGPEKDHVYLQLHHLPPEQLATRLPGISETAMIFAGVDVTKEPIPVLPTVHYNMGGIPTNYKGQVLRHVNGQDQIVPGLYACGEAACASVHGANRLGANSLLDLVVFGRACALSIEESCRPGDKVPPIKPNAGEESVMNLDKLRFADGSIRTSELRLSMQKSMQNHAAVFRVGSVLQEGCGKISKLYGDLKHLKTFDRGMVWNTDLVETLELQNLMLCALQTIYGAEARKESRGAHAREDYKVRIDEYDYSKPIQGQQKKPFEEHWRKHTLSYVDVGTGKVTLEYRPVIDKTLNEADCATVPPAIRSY
Sequence of holo-SDHA-SDHAF2 complex (preformed from purified proteins) (human) (Q9NX18 37-166, chain 2 of 2, further chain): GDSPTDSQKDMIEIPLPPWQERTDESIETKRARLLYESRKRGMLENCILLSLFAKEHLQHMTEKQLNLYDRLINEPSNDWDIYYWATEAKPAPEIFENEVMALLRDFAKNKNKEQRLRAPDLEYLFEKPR
Sequence of SDHAF4^E92N (Q5VUM1 21-108 E92N, stated change not applied): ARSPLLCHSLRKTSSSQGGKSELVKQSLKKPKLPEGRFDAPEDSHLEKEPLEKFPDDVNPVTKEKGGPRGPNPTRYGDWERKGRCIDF

Consider “SDHAF4^E92N (from UniProt Q5VUM1 21-108) (natural protein)”, for which the percent of SDHAF2 displaced from the SDHA-AF2 complex fell in the range of 40 to 50%.

Values taken from PMC10784507.
